For the experiment, the target named is sialic acid-binding immunoglobulin-like lectin-9 (Siglec-9), human, on mast cells (human) (UniProt Q9Y336). Nature of the experiment: cell-based or functional assay.

The values below come from patent US20250297003A1.

UniProt Q9Y336, sequence (Q9Y336 18-463): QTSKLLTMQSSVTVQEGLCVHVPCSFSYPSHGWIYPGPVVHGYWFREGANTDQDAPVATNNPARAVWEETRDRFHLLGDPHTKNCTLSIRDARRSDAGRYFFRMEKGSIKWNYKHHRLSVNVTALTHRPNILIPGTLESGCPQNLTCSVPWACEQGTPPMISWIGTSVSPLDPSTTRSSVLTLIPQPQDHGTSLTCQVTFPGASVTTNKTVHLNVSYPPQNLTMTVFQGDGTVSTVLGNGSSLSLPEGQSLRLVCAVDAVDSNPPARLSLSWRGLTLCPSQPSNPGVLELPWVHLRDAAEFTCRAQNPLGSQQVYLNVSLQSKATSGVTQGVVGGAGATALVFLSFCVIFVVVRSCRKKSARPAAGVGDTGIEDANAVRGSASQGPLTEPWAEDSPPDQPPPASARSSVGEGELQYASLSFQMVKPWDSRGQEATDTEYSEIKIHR

As for “mouse anti-human Siglec-9 monoclonal antibody (clone 191240, R&D Systems)”, the inhibition of MCP-1 release by HSCMCs (Siglec-9 co-crosslinked with FcεRI by a secondary antibody) was found to be 46.5%; the percentage of surface Siglec-9 signal lost (HSCMCs, 24 h, delayed secondary staining) stood at 30%; the percentage of surface Siglec-9 signal lost (LAD2 cells, 1 h, delayed secondary staining) is 30%.
